Measured values: patent US20180155415A1 (published 2018)

Tests used:
[1] = target: T1, mouse NGF (m-NGF, Alomone) (mouse, UniProt P01139 122-241); assay: SPR (BIAcore 2000), antibody immobilized by amine coupling, m-NGF injected
T1 construct: mature
Experimental: For m-NGF binding, the immobilization of the antibody was of 3000 resonance units (RU) in the experiment of panel A and of 6000 RU in the experiment of panel B. The injected concentrations of the m-NGF are indicated on top of each curve.
(§1) Experiments were performed on CMS5 chips with amine coupling, using a BIAcore 2000 machine. Coupling was performed with a specific kit purchased at BIAcore and the coupling reaction was carried out according to manufacturer's instructions.
(§2) Anti-NGF antibodies were immobilized on chip, while mouse NGF (m-NGF, Alomone) or recombinant mouse proNGF (rm-proNGF) were injected at decreasing concentrations to obtain binding curves.

[2] = target: T2, recombinant mouse proNGF (rm-proNGF) (mouse, UniProt P01139 19-241); assay: SPR (BIAcore 2000), antibody immobilized (3000 RU), rm-proNGF injected, kinetic analysis
T2 construct: Pro-form of NGF
T2 sequence (P01139 19-241): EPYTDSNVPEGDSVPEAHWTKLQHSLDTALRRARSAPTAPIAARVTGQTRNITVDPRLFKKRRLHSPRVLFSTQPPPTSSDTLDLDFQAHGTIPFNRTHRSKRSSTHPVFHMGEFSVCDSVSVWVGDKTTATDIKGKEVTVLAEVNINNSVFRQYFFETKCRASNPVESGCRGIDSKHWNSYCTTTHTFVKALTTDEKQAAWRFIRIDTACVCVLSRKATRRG
Experimental: For rm-proNGF binding (panel C), the immobilization of the antibody was of 3000 RU.
as §1, §2

T1 sequence (P01139 122-241): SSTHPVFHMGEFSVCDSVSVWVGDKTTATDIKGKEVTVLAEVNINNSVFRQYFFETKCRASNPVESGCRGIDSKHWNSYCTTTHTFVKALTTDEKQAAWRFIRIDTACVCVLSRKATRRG

B1: αD11 anti-NGF antibody (antibody, V domains shown)
VH: QVQLKESGPGLVQPSQTLSLTCTVSGFSLTNNNVNWVRQATGRGLEWMGGVWAGGATDYNSALKSRLTITRDTSKSQVFLKMHSLQSEDTATYYCARDGGYSSSTLYAMDAWGQGTTVTVSA
VL: DIQMTQSPASLSASLGETVTIECRASEDIYNALAWYQQKPGKSPQLLIYNTDTLHTGVPSRFSGSGSGTQYSLKINSLQSEDVASYFCQHYFHYPRTFGGGTKLELK
notes: Rat monoclonal antibody purified from hybridoma supernatant and immobilized on the chip; The tie to αD11 is indirect; also called alphaD11; aD11
Ka [1]: 3.55e+11 M⁻¹ | Kd [1]: 0.00281 nM | Ka [2]: 1.2e+09 M⁻¹ | Kd [2]: 1.9 nM
